According to publication PMC9482650, “Quantitative fragmentomics allow affinity mapping of interactomes” (Nature Communications, 2022):
Positions count from the first letter of the chain named.

T1: NHERF3_3, Q5T2W1
T1 sequence (Q5T2W1 238-333, limits assumed, looked up): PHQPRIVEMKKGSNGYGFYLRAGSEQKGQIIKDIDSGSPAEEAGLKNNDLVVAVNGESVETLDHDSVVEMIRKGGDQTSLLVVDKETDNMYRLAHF

T2: MPDZ_10, O75970
T2 sequence (O75970 1624-1722, limits assumed, looked up): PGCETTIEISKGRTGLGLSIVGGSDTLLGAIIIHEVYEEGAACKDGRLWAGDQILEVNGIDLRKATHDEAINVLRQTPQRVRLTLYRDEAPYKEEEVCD

T3: LNX2_2, Q8N448
T3 sequence (Q8N448 334-432, limits assumed, looked up): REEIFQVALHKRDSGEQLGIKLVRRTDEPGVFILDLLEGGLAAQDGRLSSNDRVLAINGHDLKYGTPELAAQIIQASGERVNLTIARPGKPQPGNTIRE

T4: APBA2_2, Q99767
T4 sequence (Q99767 654-744, limits assumed, looked up): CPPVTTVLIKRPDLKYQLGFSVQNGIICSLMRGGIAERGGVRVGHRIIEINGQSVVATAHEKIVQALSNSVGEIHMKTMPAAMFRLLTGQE

T5: HTRA3, P83110
T5 sequence (P83110 354-453, limits assumed, looked up): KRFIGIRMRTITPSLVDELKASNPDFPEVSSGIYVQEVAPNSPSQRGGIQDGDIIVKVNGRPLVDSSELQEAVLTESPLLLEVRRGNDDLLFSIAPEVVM

T6: GRIP1_4, Q9Y3R0
T6 sequence (Q9Y3R0 467-571, limits assumed, looked up): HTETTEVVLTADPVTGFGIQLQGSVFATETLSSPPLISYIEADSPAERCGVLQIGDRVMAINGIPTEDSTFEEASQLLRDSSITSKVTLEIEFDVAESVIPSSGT

T7: APBA1_1, Q02410
T7 sequence (Q02410 651-752, limits assumed, looked up): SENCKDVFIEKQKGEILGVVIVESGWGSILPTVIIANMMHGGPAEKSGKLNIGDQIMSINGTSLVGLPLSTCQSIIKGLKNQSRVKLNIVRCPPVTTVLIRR

T8: LNX2_3, Q8N448
T8 sequence (Q8N448 463-564, limits assumed, looked up): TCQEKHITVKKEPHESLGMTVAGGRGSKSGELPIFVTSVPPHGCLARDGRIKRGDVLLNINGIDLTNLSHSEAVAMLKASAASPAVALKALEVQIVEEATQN

T9: SNTA1, Q13424
T9 sequence (Q13424 82-180, limits assumed, looked up): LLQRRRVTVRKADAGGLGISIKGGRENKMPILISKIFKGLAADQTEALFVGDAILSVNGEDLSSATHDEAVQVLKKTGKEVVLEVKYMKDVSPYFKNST

T10: LIN7C, Q9NUP9
T10 sequence (Q9NUP9 88-185, limits assumed, looked up): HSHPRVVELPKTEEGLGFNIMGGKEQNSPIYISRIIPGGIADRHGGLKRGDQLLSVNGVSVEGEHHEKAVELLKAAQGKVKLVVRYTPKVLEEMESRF

T11: APBA1_2, Q02410
T11 sequence (Q02410 742-832, limits assumed, looked up): T4 sequence (Q99767 654-744, limits assumed, looked up) with K10R, K15R, A59P, Q65H, A66I, S70A, F84Y, G89A

T12: DVL3, Q92997
T12 sequence (Q92997 244-331, limits assumed, looked up): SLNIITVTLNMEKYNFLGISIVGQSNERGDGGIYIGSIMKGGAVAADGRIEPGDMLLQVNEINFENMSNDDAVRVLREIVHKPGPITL

T13: APBA2_1, Q99767
T13 sequence (Q99767 563-664, limits assumed, looked up): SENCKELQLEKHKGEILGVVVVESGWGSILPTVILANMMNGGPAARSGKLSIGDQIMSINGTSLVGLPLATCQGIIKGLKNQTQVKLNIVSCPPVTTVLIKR


What was measured:
Assay in all cases: holdup assay
Set-up in all cases: key: below the threshold = too weak to quantify, mostly under pKd 3.1 to 4
Details in all cases: plain residues with an end cap or a label only (N-terminal biotin on a linker: ado-ado)
[1] = biological target: NHERF4_2, Q86UT5
Sequence of NHERF4_2, Q86UT5 (Q86UT5 220-308): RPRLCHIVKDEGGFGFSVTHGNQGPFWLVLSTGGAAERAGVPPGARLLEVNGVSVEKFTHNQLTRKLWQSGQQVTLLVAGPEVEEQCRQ

[2] = biological target: T1, NHERF3_3, Q5T2W1
[3] = biological target: PDLIM1, O00151
Sequence of PDLIM1, O00151 (O00151 1-87): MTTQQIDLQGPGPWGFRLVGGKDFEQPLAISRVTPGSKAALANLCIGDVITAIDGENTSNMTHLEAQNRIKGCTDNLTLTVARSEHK

[4] = biological target: SCRIB_1, Q14160
Sequence of SCRIB_1, Q14160 (Q14160 718-814): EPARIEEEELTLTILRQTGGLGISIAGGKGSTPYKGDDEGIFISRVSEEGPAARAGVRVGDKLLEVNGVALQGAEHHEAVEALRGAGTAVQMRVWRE

[5] = biological target: Inadl_4, Q8NI35
Sequence of Inadl_4, Q8NI35 (Q8NI35 547-651): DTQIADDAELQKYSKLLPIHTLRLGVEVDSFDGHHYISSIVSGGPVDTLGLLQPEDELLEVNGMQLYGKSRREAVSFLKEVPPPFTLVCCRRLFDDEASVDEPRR

[6] = biological target: T2, MPDZ_10, O75970
[7] = biological target: T3, LNX2_2, Q8N448
[8] = biological target: T4, APBA2_2, Q99767
[9] = biological target: T5, HTRA3, P83110
[10] = biological target: T6, GRIP1_4, Q9Y3R0
[11] = biological target: T7, APBA1_1, Q02410
[12] = biological target: NHERF4_4, Q86UT5
Sequence of NHERF4_4, Q86UT5 (Q86UT5 464-550): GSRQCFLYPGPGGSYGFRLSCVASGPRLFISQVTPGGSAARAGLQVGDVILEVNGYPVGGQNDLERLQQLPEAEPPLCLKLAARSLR

[13] = biological target: T8, LNX2_3, Q8N448
[14] = biological target: MAGI2_2, Q86UL8
Sequence of MAGI2_2, Q86UL8 (Q86UL8 410-522): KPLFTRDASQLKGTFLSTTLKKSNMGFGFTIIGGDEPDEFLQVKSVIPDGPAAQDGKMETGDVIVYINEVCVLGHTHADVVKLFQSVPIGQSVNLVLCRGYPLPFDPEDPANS

[15] = biological target: LNX1_3, Q8TBB1
Sequence of LNX1_3, Q8TBB1 (Q8TBB1 500-596): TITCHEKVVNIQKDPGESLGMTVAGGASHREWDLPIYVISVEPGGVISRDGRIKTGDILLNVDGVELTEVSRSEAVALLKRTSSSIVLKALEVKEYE

[16] = biological target: T9, SNTA1, Q13424
[17] = biological target: DLG4_1, P78352
Sequence of DLG4_1, P78352 (P78352 62-152): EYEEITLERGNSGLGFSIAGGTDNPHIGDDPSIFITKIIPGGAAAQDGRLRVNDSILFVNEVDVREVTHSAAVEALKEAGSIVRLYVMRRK

[18] = biological target: T10, LIN7C, Q9NUP9
[19] = biological target: LNX1_2, Q8TBB1
Sequence of LNX1_2, Q8TBB1 (Q8TBB1 371-470): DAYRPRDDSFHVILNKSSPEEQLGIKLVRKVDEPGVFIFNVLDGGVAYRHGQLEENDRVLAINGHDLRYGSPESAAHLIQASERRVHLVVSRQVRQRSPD

[20] = biological target: GRID2IP_1, A4D2P6
Sequence of GRID2IP_1, A4D2P6 (A4D2P6 1-87): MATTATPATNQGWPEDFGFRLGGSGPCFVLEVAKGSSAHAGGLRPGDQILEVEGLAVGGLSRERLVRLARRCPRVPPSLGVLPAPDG

[21] = biological target: T11, APBA1_2, Q02410
[22] = biological target: FRMPD2_3, Q68DX3
Sequence of FRMPD2_3, Q68DX3 (Q68DX3 1073-1166): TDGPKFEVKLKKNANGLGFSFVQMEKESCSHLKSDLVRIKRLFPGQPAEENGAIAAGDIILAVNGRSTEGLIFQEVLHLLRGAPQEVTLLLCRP

[23] = biological target: GRIP2_4, Q9C0E4
Sequence of GRIP2_4, Q9C0E4 (Q9C0E4 446-548): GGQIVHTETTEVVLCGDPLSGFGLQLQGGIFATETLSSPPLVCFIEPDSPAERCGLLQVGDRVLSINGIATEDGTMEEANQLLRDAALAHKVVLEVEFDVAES

[24] = biological target: T12, DVL3, Q92997
[25] = biological target: T13, APBA2_1, Q99767

pKd [1]	pKd [2]	pKd [3]	pKd [4]	pKd [5]	pKd [6]	pKd [7]	pKd [8]	pKd [9]	pKd [10]	pKd [11]	pKd [12]	pKd [13]	pKd [14]	pKd [15]	pKd [16]	pKd [17]	pKd [18]	pKd [19]	pKd [20]	Binder	also measured
below the threshold	below the threshold	below the threshold	below the threshold	below the threshold	3.62	4.15	below the threshold	below the threshold	below the threshold	below the threshold	3.98	below the threshold	4	below the threshold	3.8	4.12	below the threshold	3.49	below the threshold	GSSSKEGTSV [RRBP1, Q9P2E9]	pKd [21]: 4.38; pKd [22]: below the threshold; pKd [23]: below the threshold; pKd [24]: below the threshold; pKd [25]: below the threshold
below the threshold	below the threshold	below the threshold	below the threshold	below the threshold	below the threshold	below the threshold	below the threshold	below the threshold	below the threshold	below the threshold	below the threshold	below the threshold	below the threshold	below the threshold	4.63	below the threshold	below the threshold	below the threshold	below the threshold	VGIERETDVL [EZH1, Q92800]	pKd [21]: below the threshold; pKd [22]: below the threshold; pKd [23]: below the threshold; pKd [24]: below the threshold; pKd [25]: below the threshold
below the threshold	below the threshold	below the threshold	below the threshold	below the threshold	below the threshold	below the threshold	below the threshold	below the threshold	below the threshold	below the threshold	below the threshold	below the threshold	below the threshold	below the threshold	below the threshold	below the threshold	3.96	below the threshold	below the threshold	ADRDHASDQL [CTBP1, Q13363]	pKd [21]: below the threshold; pKd [22]: below the threshold; pKd [23]: below the threshold; pKd [24]: below the threshold; pKd [25]: below the threshold
